# B1: Soluble recombinant ApoER2’ (a splice variant of ApoER2 lacking LDL-binding domains 4, 5 and 6) (receptor)
# chain: not shown
# Biological target: Factor XI (FXI), plasma-derived (human)
# Assay: ELISA
binder,measurement,value
B1,Kd,61 nM
